Test results taken from paper doi:10.1101/2025.11.17.685403.
Numbering of substitutions follows the chain as printed.

T1: RFS1 (cShu subunit);RIP1 (cShu subunit);SWS1 (cShu subunit) (Caenorhabditis elegans;Caenorhabditis …, UniProt P34348;Q21621;Q8MYM5 1-245;1-209;1-191, ||)
T1 sequence 1: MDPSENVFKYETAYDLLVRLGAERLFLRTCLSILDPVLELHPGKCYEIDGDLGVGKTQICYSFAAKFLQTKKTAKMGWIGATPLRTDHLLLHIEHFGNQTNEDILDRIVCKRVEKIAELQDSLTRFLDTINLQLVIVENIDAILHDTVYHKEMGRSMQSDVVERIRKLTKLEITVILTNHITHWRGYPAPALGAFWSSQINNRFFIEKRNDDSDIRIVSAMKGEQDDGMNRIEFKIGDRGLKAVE
T1 sequence 2: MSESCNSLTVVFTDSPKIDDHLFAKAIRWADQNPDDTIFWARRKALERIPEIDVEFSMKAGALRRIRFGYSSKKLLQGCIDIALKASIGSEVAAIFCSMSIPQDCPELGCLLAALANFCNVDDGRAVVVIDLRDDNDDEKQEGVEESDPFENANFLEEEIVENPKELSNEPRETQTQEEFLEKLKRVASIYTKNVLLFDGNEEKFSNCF
T1 sequence 3: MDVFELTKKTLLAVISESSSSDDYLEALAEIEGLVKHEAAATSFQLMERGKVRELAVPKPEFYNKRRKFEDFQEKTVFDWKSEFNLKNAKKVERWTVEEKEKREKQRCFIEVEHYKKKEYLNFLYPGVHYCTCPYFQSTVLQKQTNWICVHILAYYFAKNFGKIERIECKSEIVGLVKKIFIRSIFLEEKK

T2: RFS1 E138A (Walker B);RIP1 (cShu subunit);SWS1 (cShu subunit) (Caenorhabditis elegans;Caenorhabditis …, UniProt P34348;Q21621;Q8MYM5 1-245;1-209;1-191, E138A||)
T2 sequence 1: T1 sequence 1 with E138A
T2 sequence 2: T1 sequence 2
T2 sequence 3: T1 sequence 3

T3: RFS1 K56A (Walker A);RIP1 (cShu subunit);SWS1 (cShu subunit) (Caenorhabditis elegans;Caenorhabditis …, UniProt P34348;Q21621;Q8MYM5 1-245;1-209;1-191, K56A||)
T3 sequence 1: T1 sequence 1 with K56A
T3 sequence 2: T1 sequence 2
T3 sequence 3: T1 sequence 3

B1: 3'-overhang (5 nt) (mixed)
DNA 1: ACTGCCCTTACAGCACAGCGGTTTTT
DNA 2: CCGCTGTGCTGTAAGGGCAGT
B2: ss21 (ssDNA)
DNA: ACTTACAGCACAGCGGTTTTT
B3: 5'-overhang (5 nt) (mixed)
DNA 1: ACTGCCCTTACAGCACAGCGG
DNA 2: TTTTTCCGCTGTGCTGTAAGGGCAGT
B4: ss31 (ssDNA)
DNA: ACTGCCCTTACAGCACAGCGGTTTTTTTTTT
B5: Fork (10 nt) (mixed)
DNA 1: B4 DNA
DNA 2: TTTTTTTTTTCCGCTGTGCTGTAAGGGCAGT
B6: 3'-overhang (10 nt) (mixed)
DNA 1: B4 DNA
DNA 2: CCGCTGTGCTGTAAGGGCAGT
B7: Fork (5 nt) (mixed)
DNA 1: ACTGCCCTTACAGCACAGCGGTTTTT
DNA 2: TTTTTCCGCTGTGCTGTAAGGGCAGT
B8: ds21 (dsDNA)
DNA 1: ACTTACAGCACAGCGGTTTTT
DNA 2: AAAAACCGCTGTGCTGTAAGT
B9: ss26 (ssDNA)
DNA: ACTGCCCTTACAGCACAGCGGTTTTT
B10: ds26 (dsDNA)
DNA 1: ACTGCCCTTACAGCACAGCGGTTTTT
DNA 2: AAAAACCGCTGTGCTGTAAGGGCAGT
B11: 5'-overhang (10 nt) (mixed)
DNA 1: ACTGCCCTTACAGCACAGCGG
DNA 2: B5 DNA 2
B12: 5'-overhang (20 nt) (mixed)
DNA 1: TTTTTTTTTTTTTTTTTTTTCTTGACAAGCTTGCGCACT
DNA 2: AGTGCGCAAGCTTGTCAAG
B13: Fork (20 nt) (mixed)
DNA 1: B12 DNA 1
DNA 2: AGTGCGCAAGCTTGTCAAGGCACTTTTTTTTTTTTTTTT
B14: ss39 (ssDNA)
DNA: B12 DNA 1
B15: 3'-overhang (20 nt) (mixed)
DNA 1: CTTGACAAGCTTGCGCACT
DNA 2: B13 DNA 2
B16: ds39 (dsDNA)
DNA 1: B12 DNA 1
DNA 2: AGTGCGCAAGCTTGTCAAGAAAAAAAAAAAAAAAAAAAA

What follows are binders tested against T1, RFS1 (cShu subunit);RIP1 (cShu …) (assay: fluorescence polarization).

Binder | binding result | Kd [nM]
B1 | no binding | 
B2 | no binding | 
B3 | no binding | 
B4 |  | 3200 ± 300
B5 | no binding | 
B6 | no binding | 
B7 | no binding | 
B8 | no binding | 
B9 |  | 4200 ± 400
B10 | no binding | 
B11 | no binding | 

Target: T1, RFS1 (cShu subunit);RIP1 (cShu …)
Experiment: fluorescence polarization
Remark: another data set of the same source

Binder | Kd [nM]
B12 | 3800 ± 300
B13 | 500 ± 20
B14 | 2900 ± 300

These binders were tested against T2, RFS1 E138A (Walker B);RIP1 (cShu …) (assay: fluorescence polarization).

Binder | Kd [nM]
B12 | 1200 ± 100
B13 | 380 ± 30
B14 | 2200 ± 100

Each binder was assayed against T3, RFS1 K56A (Walker A);RIP1 (cShu …) (assay: fluorescence polarization).

Binder | Kd [nM]
B12 | 4700 ± 200
B13 | 2500 ± 100
B14 | 3300 ± 100

Target: T1, RFS1 (cShu subunit);RIP1 (cShu …)
Experiment: fluorescence polarization
Remark: another data set of the same source

Binder | Kd [nM]
B12 | 695 ± 3
B13 | 210 ± 20
B14 | 1000 ± 100

Target: T2, RFS1 E138A (Walker B);RIP1 (cShu …)
Experiment: fluorescence polarization
Remark: another data set of the same source

Binder | Kd [nM]
B12 | 760 ± 40
B13 | 140 ± 10
B14 | 1000 ± 20

Target: T3, RFS1 K56A (Walker A);RIP1 (cShu …)
Experiment: fluorescence polarization
Remark: another data set of the same source

Binder | Kd [nM]
B12 | 3900 ± 400
B13 | 2680 ± 80
B14 | 3000 ± 100

Target: T1, RFS1 (cShu subunit);RIP1 (cShu …)
Experiment: fluorescence polarization
Remark: another data set of the same source

Binder | binding result | Kd [nM]
B15 | no binding | 
B12 |  | 4200 ± 500
B13 |  | 2800 ± 300
B14 |  | 2900 ± 100
B16 | no binding | 

Target: T2, RFS1 E138A (Walker B);RIP1 (cShu …)
Experiment: fluorescence polarization
Remark: another data set of the same source

Binder | Kd [nM] | binding result
B12 | 3900 ± 100 | 
B13 | 1900 ± 200 | 
B14 | 2700 ± 200 | 
B16 |  | no binding

Target: T3, RFS1 K56A (Walker A);RIP1 (cShu …)
Experiment: fluorescence polarization
Remark: another data set of the same source

Binder | Kd [nM] | binding result
B12 | 4500 ± 300 | 
B13 | 2500 ± 300 | 
B14 | 3300 ± 200 | 
B16 |  | no binding
